The record followed here is US20220073650A1 (AFFIRIS, published 2022).

No end group written: not given here.

For experiment [1], the target named is T1, peptide p7564 (human, not fully specified (residue 1)).
T1 construct: also called 'cleaved' peptide
T1 peptide: CPSDSSEIVLD
Description: peptide ELISA.

In experiment [2] the target is T2, peptide p7562 (human, not fully specified (residue 1)).
T2 peptide: CDSSEIVLD
Description: peptide ELISA. (In general: An ELISA detects its analyte on a solid surface through an enzyme-linked reagent.)

Experiment [3] has as its target T3, peptide p7552 (human, not fully specified (residue 1)).
T3 peptide: CSSEIVLD
Description: peptide ELISA.

The target in experiment [4] is T4, peptide p6773 (human, not fully specified (residue 18)).
T4 peptide: LPQPPPQAQPLLPQPQPC
Description: peptide ELISA.

Experiment [5] has as its target T5, recombinant N-terminal Huntingtin fragment recHTT610 (human, UniProt P42858 1-610).
T5 construct: range 1-610; Used as extract of transiently transfected HEK293 cells, captured by anti-V5 antibody on the plate or spiked into human serum; also called recombinant HTT610; recombinant Huntingtin; not shown: two C-terminal V5 tags
Description: recHTT610 capture ELISA. How it is done:
Binding of antibodies to N-terminal fragment HTT610 was determined by a standard protein capture ELISA procedure using Maxisorb™ ELISA plates (Thermo; CatNr. 439454), coated with 50 μl of a 1:5000 rabbit anti V5 mAB (Sigma, CatNr. V8137), blocking with blocking buffer (PBS, 1% BSA, 0.1% Tween 20), capturing of recombinant Huntingtin from HEK cell extracts (100 ng/μl total protein) followed by incubation with several dilutions of mouse anti HTT sera (1:100; 1:300 and 1:900) or with mAB2166 as reference (diluted 1:2000; Millipore, Cat Nr. MAB2166) for 1 hour at RT. ELISA incubations, washing and detection procedures were performed according to standard procedures.

T5 sequence (P42858 1-610): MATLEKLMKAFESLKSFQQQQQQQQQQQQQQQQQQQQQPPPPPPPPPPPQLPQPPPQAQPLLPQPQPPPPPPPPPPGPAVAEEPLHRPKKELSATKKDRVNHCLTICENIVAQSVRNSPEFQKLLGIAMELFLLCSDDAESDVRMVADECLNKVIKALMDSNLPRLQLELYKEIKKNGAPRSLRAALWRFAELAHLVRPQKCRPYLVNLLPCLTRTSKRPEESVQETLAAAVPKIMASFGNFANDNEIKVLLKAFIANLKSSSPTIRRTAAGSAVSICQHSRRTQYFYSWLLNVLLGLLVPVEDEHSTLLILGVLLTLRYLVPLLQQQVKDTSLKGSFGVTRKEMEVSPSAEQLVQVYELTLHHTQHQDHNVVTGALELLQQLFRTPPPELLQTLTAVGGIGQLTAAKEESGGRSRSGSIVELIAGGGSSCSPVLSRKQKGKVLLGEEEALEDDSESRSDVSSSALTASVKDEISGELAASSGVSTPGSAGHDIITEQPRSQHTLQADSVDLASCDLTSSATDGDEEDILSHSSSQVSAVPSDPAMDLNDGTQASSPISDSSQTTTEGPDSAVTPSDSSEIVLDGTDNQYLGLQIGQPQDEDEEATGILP

B1: monoclonal antibody M1D1 (antibody, V domains shown)
VH: EVQLVESGGGLVQPKGSLKLSCAASGFTFNTYAMNWVRQAPGKGLEWVARIRSKSNNYATYYADSVKDRFTISRDDSQSMLYLQMNNLKTEDTAMYYCVRHGEYGNPWFAYWGQGTLVTVSA
VL: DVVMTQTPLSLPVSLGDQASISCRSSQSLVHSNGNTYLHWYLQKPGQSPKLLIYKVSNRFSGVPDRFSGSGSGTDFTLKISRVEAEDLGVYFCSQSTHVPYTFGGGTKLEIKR
notes: Typed as mouse IgM; hybridoma, immunogen p7564; also called mAB M1D1
Take B1: the binding result in experiment [1], in experiment [2] and in experiment [3] was “binds” each time.

B2: monoclonal antibody PRR13 (antibody, V domains shown)
VH: EVQLQQSAPELVKPGASVKMSCKASGYSFTDFYMKWVKQSHGKGLEWIGDIDPKNGDTFYNQKFKGRATLTVDKSSSTAYMQLNSLTTEDSAVYYCATYYGYTMDYWGQGTSVTVSS
VL: QIVLTQSPAIMSASLGERVTMTCTASSSVTSSYLHWYQQKPGSSPKLWIYSTSNLASGVPARFSGSGSGTSYSLTISSMEAEDAATYYCHQYRRPPRTFGGGTKLEIKR
notes: Mouse IgG2a from hybridoma, immunogen p6773; also called mAB PRR13; PPR13
As to B2, in experiment [4], the binding result is “binds”. For the same molecule, in experiment [5], the “signal to noise ratio (reHTT610-specific signal: HEK ctrl extracts)” value was at least 4.
